The text below walks through data of patent US12139534B2, “Methods and compositions for decreasing soluble immune receptor CD28” (BIOND BIOLOGICS LTD., priority 2018, dated 2024).

One assay concerns human PBMCs. The assay can be described thus: Soluble CD28 generation by SEB or CMV stimulated PBMCs, human CD28 ELISA. The class given is cell-based. How it is done: (§1) ELISA—Commercial ELISA kits were used for quantitation of the amount of human interferon-gamma (Biolegend, Cat. No. 430103), human interleukin 2 (Biolegend, Cat. No. 431802), human interleukin 6 (Biolegend, Cat. No. 430502), human interleukin 10 (Biolegend, Cat. No. 430603), human […] beta 1 (Biolegend, Cat. No. 436708), human interleukin beta 1 (Biolegend, Cat. No. 437004) and human CD28 (R&D system, Cat. No. DY342). Cell Proliferation and viability (MTT assay) was conducted according to manufacturer instructions (Roche, cat #11465007001). Kynurenine (IDO activity) ELISA kit was conducted according to manufacturer instructions (ImmuSmo Cat #BA E-2200).
(§2) Protease Inhibitors—Protease inhibitors were added at the indicated concentrations at the start of each experiment. In week long assays another portion of the inhibitors was added after 3 days at the final concentration. […] Where mentioned the protease cocktail was composed with a mixture of TAPI-1 and GM6001 at equimolar ratio.
SEB or CMV activation of PBMCs for the generation of soluble CD28—0.3×10^6 PBMCs were stimulated with 0.5 ng/mL SEB (Sigma, Cat. No. S4881) for 5-7 days at 37° C. with/without the indicated concentration of various protease inhibitors in 48 well plate. Alternatively, 0.1×10^6 PBMCs were stimulated with 0.5 ng/mL SEB in 96 well plate format assay. For CMV stimulation 0.5×10^6 PBMCs were stimulated with 0.5 μg/mL CMV peptivator (Milteny Biotec, Cat. No. 130-093-435) for 2-5 days at 37° C. with/without the indicated concentration of various protease inhibitors in a 96 well plate. For continuous shedding experiments PBMC were stimulated with SEB or CMV in 24 well plate for 24 hr, cells were taken and washed three times with RPMI without stimulant and plated again in a 96 well plate. Samples were taken at indicated times and put under freezing conditions until examination for soluble CD28.

The test system of another assay is human CD4 T cells. The assay can be described thus: Soluble CD28 generation by PHA activated CD4 T cells, CD28 ELISA. In kind it is cell-based. Particulars: PHA 1-4 μg/mL, TAPI-1 and GM6001 cocktail 0.5-2 μM. Here is the method:
as §1, §2
(§3) PHA activation of CD4 T cells or Jurkat T cell line for the generation of soluble CD28—1×10^5 Jurkat cells or CD4 T cells were incubated with the indicated concentration of Phytohemagglutinin (Sigma, Cat. No. L8902) and various protease inhibitors for additional 5 (Jurkat) or 7 days (CD4 T cells).
(ELISA stands for enzyme-linked immunosorbent assay.)

For a further assay, the system named is Jurkat T cell line. Nature of the assay: Soluble CD28 generation by PHA activated Jurkat T cell line, CD28 ELISA. The following applies: PHA 1-4 μg/mL, TAPI-1 and GM6001 cocktail 0.5-2 μM. In kind it is cell-based, human. Here is the method: as §1, §2, §3
Assay [1] deals with isolated CD3 human T cells. The assay can be described thus: CD3 T cells stimulation with anti-CD3 OKT3, IFN gamma secretion. In kind it is cell-based. The following applies: for IFNγ secretion (agonism): anti-CD3 stimulation, CD28.2 2.0 μg/mL, antibodies 0.1-10 μg/mL. Here is the method:
T cells stimulation with OKT3—0.1×10^6 isolated CD3 T cells (from healthy donors) were stimulated with indicated amount of anti-CD3 clone OKT3 for 48-72 hr at 37° C. When stated recombinant human CD80-Fc (2 μg/mL, R&D system) was added in soluble form. Antibodies to CD28 or controls were added at the indicated concentration in soluble form.
CD80 is one of the two main ligands for mCD28 along with CD86. The extracellular domain of CD80 fused to an Fc moiety has been used as an immune stimulatory molecule and is under investigation as a cancer therapy. In order to examine the effect of sCD28 on CD80-Fc efficacy, isolated CD3 human T cells were stimulated with plate bound anti-CD3 antibody (OKT3, 2 μg/mL) in the presence of 2 μg/mL soluble recombinant human CD80-Fc.

In assay [2] the target is T1, mCD28 (Homo sapiens, UniProt P10747).
T1 construct: expressed in transfected cells
The assay can be described thus: FACS binding to mCD28 on naïve CD3 T cells. The following applies: antibody 20 μg/mL. Here is the method:
Flow Cytometry—Generally, cells were kept on ice during all steps. Prior to staining, 5×10^5 cells were blocked with 50 μg/mL human IgG (Sigma, Cat. No. 14506) in FACS buffer (PBS with 0.1% BSA) for 15 min. Antibodies were used at concentrations recommended by the manufacturer and incubated for 30 min. in the dark. Incubations were done in a volume of 100 μL in 96-well U bottom plates. Cells were washed twice with 200 μL of FACS buffer and transferred to FACS tubes in 150 μL of FACS buffer for analysis. Cells were analyzed on a Gallios Flow Cytometer (Beckman Coulter) using the Kaluza for Gallios Flow Cytometry Acquisition Software.
Lastly, the ability of antibodies #1-3 to bind to mCD28 at all was examined. While it is not essential that a sCD28 antibody not bind mCD28 it is advantageous. Such an antibody could be used for specific detection of the soluble protein, and if used therapeutically would have no effect on the membranal form. Naïve isolated CD3 T cells were evaluated by FACs to assay mCD28 binding. Cells were incubated with antibodies #1-3 (20 μg/mL dark grey histograms) or isotype controls (mIgG, 20 μg/mL, light grey histograms). Binding detection was performed with Alexa Fluor 647-conjugated goat anti mouse secondary antibody.
(In general: Flow cytometry measures light scatter and fluorescence of single cells or particles in a stream.)

The target of assay [3] is T1, mCD28. The assay can be described thus: CD86 blocking FACS on HEK293 cells stably transfected with human CD28. In kind it is binding. Particulars: CD86-Fc 5 μg/mL; antibody 20 μg/mL. How it is done:
CD86 blocking FACS—0.5×10^6 HEK293 cells stably transfected with human CD28 were incubated with 5 μg/mL CD86-Fc (R&D systems, Cat. No. 141-B2) without or with anti CD28 antibodies (20 μg/mL) for 30 min in room temperature. Cells were washed and taken for secondary binding using anti-human heavy and light chains antibody conjugated to fluorophore at 1:5000 dilution for 20 min on ice.

The next assay has as its system sCD28. Nature of the assay: Simulated sweeping of soluble CD28 from plasma with antibody coated magnetic beads. On the set-up: species or system human. Particulars: for sCD28 levels in plasma after beads: about 1.5 μg on beads. How it is done: Simulated sweeping of soluble CD28 from plasma of cancer patient. Antibodies or recombinant proteins were coated on tosyl-activated magnetic beads (Invitrogen, Cat. No. DY-14203) as described by manufacturer protocol. […] The mixture was incubated in a thermomixer for 2 hr, 1000 RPM at 37° C., followed by removal of the beads using a DynaMag magnet (Invitrogen, Cat. No. 12321D) and the samples were examined using CD28 specific ELISA.
Varying amounts (0.125-2 μg) of antibodies #1 and #2 were loaded onto tosyl-activated magnetic beads according to the manufacturer's protocol (Thermo Fisher Scientific). The loaded beads were then added to plasma samples from a cancer patient, and the mixture was incubated in a thermomixer at 37° C. for 2 hours at 1000 RPM. The beads were isolated and removed from the plasma with a magnet and the amount of sCD28 remaining in the serum was measured by ELISA.
Antibody #1 was further tested on various cancer samples (melanoma, colorectal and ovarian) and compared to three B7 molecules which are known ligands of CD28. About 1.5 μg of antibody #1, CD80, CD86 and ICOSL were each loaded onto tosyl-activated magnetic beads and the beads were mixed with plasma as before. A colorectal sample (FIG. 16C), as well as two melanoma samples (FIG. 16D-E), an ovarian sample (FIG. 16F) and a sample from a healthy donor (FIG. 16G) were all tested.

The next assay addresses T2, recombinant human CD28 (Homo sapiens, UniProt P10747).
T2 construct: recombinant human CD28 lacking the transmembrane and cytoplasmic domains; purchased R&D 342-CD
Nature of the assay: Direct CD28 ELISA on recombinant human CD28. In kind it is binding.

Turning to `CNC(=O)[C@@H](NC(=O)[C@H](CCCc1ccccc1)[C@H](C)N(O)C=O)C(C)(C)C` [GI254023X], the “sCD28 release from activated immune cells” value in the assay with human PBMCs (PBMCs, SEB 1 ng/mL, inhibitor 0.01-1 μM) was “almost complete inhibition of sCD28 release”. Besides, the “sCD28 levels detected with antibodies of the invention” value with human PBMCs (stimulated cells with protease inhibitors, sandwich ELISA) was “Lower levels of sCD28”.

As to `CNC(=O)[C@H](Cc1c[nH]c2ccccc12)NC(=O)[C@@H](CC(=O)NO)CC(C)C` [GM6001], the “amount of sCD28 in supernatant” value with human CD4 T cells and in the assay on Jurkat T cell line was “diminished the amount of sCD28” throughout. In the assay on human PBMCs (PBMCs stimulated with SEB or CMV, TAPI-1 and GM6001 protease inhibitor cocktail), the “amount of sCD28 in culture” value is recorded as “diminish the amount of sCD28 in a dose dependent manner”.

B1: CD80-Fc: extracellular domain of CD80 fused to an Fc moiety (protein)
chain: VIHVTKEVKEVATLSCGHNVSVEELAQTRIYWQKEKKMVLTMMSGDMNIWPEYKNRTIFDITNNLSIVILALRPSDEGTYECVVLKYEKDAFKREHLAEVTLSVKADFPTPSISDFEIPTSNIRRIICSTSGGFPEPHLSWLENGEELNAINTTVSQDPETELYAVSSKLDFNMTTNHSFMCLIKYGHLRVNQTFNWNTTKQEHFPDN
modifications: left off: a dimerising Fc or GST
notes: extracellular domain of CD80 fused to an Fc moiety
As to B1, the IFN gamma secretion result in assay [1] (plate bound OKT3 2 μg/mL, CD80-Fc 2 μg/mL) is “increased IFN gamma secretion”.

B2: antibody #3: sCD28 binding (sweeping) antibody; heavy chain SEQ ID NO: 50, light chain SEQ ID NO: 52 (antibody)
heavy: EVQLQQFGAELVKPGASVKISCKASGYTFTDYNMDWVKQSHGKSLEWIGDINPNYDSTAYNQKFMGKATLTVDKSSNTAYMELRSLTSEDTAVYYCARSSPYYDSNHFDYWGQGTSLTVSSAKTTPPSVYPLAPGSAAQTNSMVTLGCLVKGYFPEPVTVTWNSGSLSSGVHTFPAVLQSDLYTLSSSVTVPSSTWPSETVTCNVAHPASSTKVDKKIVPRDCGCKPCICTVPEVSSVFIFPPKPKDVLTITLTPKVTCVVVDISKDDPEVQFSWFVDDVEVHTAQTQPREEQFNSTFRSVSELPIMHQDWLNGKEFKCRVNSAAFPAPIEKTISKTKGRPKAPQVYTIPPPKEQMAKDKVSLTCMITDFFPEDITVEWQWNGQPAENYKNTQPIMDTDGSYFVYSKLNVQKSNWEAGNTFTCSVLHEGLHNHHTEKSLSHSPGK
light: QIVLTQSPAIMSASPGEKVTMTCSARSSINYMHWFQQKPGTSPKRWIYDTSKLASGVPARFSGSGSGTSYSLTISNMEAEDAATYYCHQRNSYPFTFGSGTKLEIKRADAAPTVSIFPPSSEQLTSGGASVVCFLNNFYPKDINVKWKIDGSERQNGVLNSWTDQDSKDSTYSMSSTLTLTKDEYERHNSYTCEATHKTSTSPIVKSFNRNEC
For B2, the “binding to mCD28 on the cell surface” value with mCD28 [2] is on record as “do not bind CD28 on the cell surface”. For the same molecule, in assay [1], the “IFNγ secretion (agonism)” value is on record as “no effect on IFN secretion”. For the same molecule, in the assay with mCD28 [3], the “CD86 binding to mCD28” value is “none of antibody #1 (FIG. 15B), antibody #2 (FIG. 15C), or antibody #3 (FIG. 15D) blocked binding of CD86 to mCD28”.

B3: antibody #1: sCD28 binding (sweeping) antibody; heavy chain SEQ ID NO: 42, light chain SEQ ID NO: 44 (antibody)
heavy: QIQLVQSGPELKKPGETVKISCKASGYTLTNYGMNWVKQAPGKGLKWMGWINTYTGKPTYVDDFKGRFAFSLETSASTAYLQINNLKNEDTATYFCARGDANQQFAYWGQGTLVTVSAAKTTPPSVYPLAPGSAAQTNSMVTLGCLVKGYFPEPVTVTWNSGSLSSGVHTFPAVLQSDLYTLSSSVTVPSSTWPSETVTCNVAHPASSTKVDKKIVPRDCGCKPCICTVPEVSSVFIFPPKPKDVLTITLTPKVTCVVVDISKDDPEVQFSWFVDDVEVHTAQTQPREEQFNSTFRSVSELPIMHQDWLNGKEFKCRVNSAAFPAPIEKTISKTKGRPKAPQVYTIPPPKEQMAKDKVSLTCMITDFFPEDITVEWQWNGQPAENYKNTQPIMDTDGSYFVYSKLNVQKSNWEAGNTFTCSVLHEGLHNHHTEKSLSHSPGK
light: DIKMTQSPSSMYASLGERVTITCKASQDINSYLSWFQQKPGKSPKTLIYRANRLVDGVPSRFSGSGSGQDYSLTISSLEYDDMGIYYCLQYDEFPPTFGAGTKLELKRADAAPTVSIFPPSSEQLTSGGASVVCFLNNFYPKDINVKWKIDGSERQNGVLNSWTDQDSKDSTYSMSSTLTLTKDEYERHNSYTCEATHKTSTSPIVKSFNRNEC
For B3, in the assay with mCD28 [2], the “binding to mCD28 on the cell surface” value is recorded as “bound mCD28”. In the assay on sCD28 (about 1.5 μg each on beads), the “comparison with CD80, CD86 and ICOSL” value was “superior to the other three molecules tested”. Besides, the “sCD28 levels in plasma after beads” value in the assay on sCD28 (all cases) was “at or below the levels observed in the healthy sample”; in the assay on sCD28 (all samples except one melanoma sample) it was “nearly undetectable levels”. In addition, the “removal of sCD28 from plasma” value with sCD28 (cancer patient plasma, 0.125-2 μg antibody on beads, 37° C. 2 hours) was “capable of binding and removing sCD28 from plasma”. The “reduction of sCD28” value in the assay on sCD28 (one of the melanoma samples (FIG. 16D)) was “greater than 50%”. In the assay with recombinant human CD28, the “detection compared to CD28.2” value is reported as “nearly ten-times greater detection”. Further, the “binding to sCD28” value with recombinant human CD28 (immobilized recombinant human sCD28) is recorded as “much stronger binding to sCD28”. Further, the “IFNγ secretion (agonism)” value in assay [1] is reported as “no effect on IFN secretion”. Also, in the assay with mCD28 [3], the “CD86 binding to mCD28” value was “none of antibody #1 (FIG. 15B), antibody #2 (FIG. 15C), or antibody #3 (FIG. 15D) blocked binding of CD86 to mCD28”.
